The target of this assay is trimeric SARS-CoV-2 spike (residues 1-1213), 986PP987, furin sites disrupted, C-terminal foldon and hexahistidine tag (SARS-CoV-2) (UniProt P0DTC2).

In turn, “2B04 Fab (papain-cleaved Fab form of 2B04)” displayed a total buried surface area of the complex of 656 Å2.

Values taken from patent publication WO2021212049A2.
